Key:
CNV lesions = experiment: CNV animal model of AMD, murine vs humanized mAbs (Example 17); assay type: in vivo, mice; settings: for Percent inhibition of lesion size: 14 days post laser
Procedure: The humanized antibody variants and the murine antibody were compared for their ability to inhibit neo-vascularization in the CNV animal model of AMD as shown in FIG. 13. […] Mice were sacrificed 14 days post laser surgery. Control mice were treated with aqueous buffer (PBS) or an isotype-matched non-specific antibody. Three of the humanized variants inhibited angiogenesis essentially equivalently to the murine antibody as assessed by measurement of CNV area. CNV lesion volumes are represented as means±SEM.
For the induction of CNV, mice were anesthetized with a mixture of ketamine (14 mg/kg) and xylazine (30 mg/kg) in sterile saline administered intraperitoneally at a dose of 5 μL per 20 g of body weight. Their pupils were then dilated with one drop each of ophthalmic tropicamide (0.5%) and phenylephrine (2.5%). An argon green ophthalmic laser (Oculight GL 532 nm, Iridex Corporation, Mountain View, Calif.) coupled to a slit lamp set to deliver a 100 msec pulse at 150 mW with a 50 μm spot size will then be used to rupture Bruch's membrane in three quadrants of the right eye located approximately 50 μm from the optic disc at relative 9, 12 and 3 o'clock positions. The left eye served as uninjured control in all cases.
The morphometric and volumetric CNV lesions were measured as follows. Two weeks after laser induction of CNV, the animals were euthanized by overdose of ketamine-xylazine mixture, then undergo whole body perfusion via cardiac puncture with 6 ml 4% paraformaldehyde in PBS, pH 7.5, (fixative) as previously described (Sengupta et al., 2003). The eyes will then be enucleated, punctured with a 27 g needle 1 mm posterior to the limbus, and immersed in fixative for 1 hr at room temperature, then washed 2× by immersion in PBS for 30 min. The eyes will then be dissected to isolate the posterior segment consisting of the retinal pigment epithelium, the choriocapillaris and the sclera. This tissue was then permeabilized and reacted with rhodamine-conjugated R. communis agglutinin I (Vector Laboratories, Burlingame, Calif.) to detect the CNV lesion as previously described (Sengupta et al., 2003; Sengupta et al., 2005). […]
Captured digital images were evaluated morphometrically using ImageJ software (Research Services Branch, National Institutes of Health, Bethesda, Md.). Images were split into separate RGB channels for analysis of the red and green channels as follows: 1) a calibration for the specific objective and microscope was applied to set the pixel-to-length ratio; 2) a threshold was applied using the Otsu algorithm; 3) images will be made binary; 4) a region-of-interest (ROI) was outlined to include the entire lesion area; 5) a particle analysis was performed to quantify the pixel area above the threshold level within the ROI. […]

[1] = tested on: retinal neovascularization; experiment: Murine model of retinopathy of prematurity: retinal neovascularization; assay type: in vivo, C57BL/6 mice; settings: 5.0 μg/eye intravitreal
Procedure: C57BL/6 mice (n=7) were placed in 75% oxygen at day 7 of life and at day 12 of life were returned to room air and given an intraocular injection of 5 μg of sonepcizumab in one eye and vehicle in the contralateral eye. At day 17, the mice received an intraocular injection of anti-PECAM antibody labeled with FITC and after 8 hours, mice were euthanized and eyes were removed and fixed in PBS-buffered formalin at room temperature for 5 hours. Retinas were dissected and washed with phosphate-buffered saline containing 0.25% Triton X-100 and whole mounted. Slides were viewed with a Nikon Fluorescence Microscope and the area of retinal NV per retina was measured by image analysis.

[2] = 28-day toxicity and toxicokinetic study of LT1002 in mice; assay type: in vivo; settings: 28 days
Procedure: The purpose of this study was to determine the toxicity and toxicokinetic profile of the murine anti-S1P monoclonal antibody, LT1002, following daily administration to C57/BL6 mice. The study was conducted by an independent contract laboratory organization, LAB Research, Inc. The LT1002 dosing solutions were administered for 28 consecutive days to animals in each group by bolus intravenous injection via the tail vein (Days 1-14) and then by bolus intraperitoneal injection (Days 15-28), over a period of approximately 0.5-1.0 minute. The treated group animals were dosed with LT1002 at 30, 75 or 200 mg/kg (n=6 per group) and compared to animals treated with PBS as a saline (vehicle) control group.
During the study, animals were monitored for effects on mortality, clinical condition, body weight and food consumption. Blood samples were collected from a subgroup of animals at necropsy for assessment of hematology, coagulation and clinical chemistry. Study animals were euthanized and subjected to a necropsy examination. Selected organs were weighed and a full list of tissues was retained. A histopathology examination was performed on the full tissue list from all control and high dose animals (200 mg/kg/day) and all abnormalities, while target organs were examined on lower dose groups. Blood samples were collected from the toxicokinetic animals (3 animals/sex/group/time point) on Days 1, 14 and 28 and the animals were euthanized and discarded without examination.

HUVECs = experiment: HUVEC tube formation on GF-reduced Matrigel; assay type: cell-based, human; settings: co-incubated with S1P
Procedure: FIG. 5 has two panels, A and B. In panel A, S1P is shown to promote neovascularization through induction of HUVECs tube formation and migration, which is reduced by SPHINGOMAB. […] The number of cells that migrated to the Matrigel membrane were counted in five independent fields.
Experiments were performed as described by Visentin et al. (Cancer Cell 2006 March; 9(3):225-38).

[3] = tested on: fibroblasts (Swiss 3T3, murine cardiac, WI-38); experiment: S1P-stimulated fibroblast proliferation, migration, collagen expression and myofibroblast differentiation; assay type: cell-based; settings: 1 μg/mL antibody
Procedure: See Example 7, below, for experimental details. […] In these experiments, fibroblasts were serum-starved and then treated with 0, 0.1, 0.5, or 1 μM S1P+/−1 μg/mL SPHINGOMAB for 12-24 hr. […] SPHINGOMAB neutralized each of these S1P effects. SPHINGOMAB reduced perivascular fibrosis in vivo in a murine model of a permanent myocardial infarction (E).
S1P makes profound contributions to wound healing by activating fibroblast migration, proliferation and collagen production; SPHINGOMAB neutralizes these effects. Several studies using multiple types of fibroblasts confirm S1P's ability to promote wound healing: 1) S1P increased Swiss-3T3 fibroblast proliferation as measured by ^3H-thymidine incorporation using standard methods (FIG. 7A); 2) S1P promoted the migration of cardiac fibroblasts in a standard scratch wound healing assay. […] In each of these assays, SPHINGOMAB neutralized S1P's. It is anticipated that ocular fibroblasts would respond similarly to S1P and SPHINGOMAB.

[4] = 0.5 ug intravitreal, Day 0 and Day 6

| Molecule | inhibition of neovascularization (CNV area/volume), qualitative (CNV lesions; [4]) | Percent inhibition of lesion size (CNV lesions; [4]) | inhibition compared to non-specific antibody control (CNV lesions; p<0.05) | reduction in retinal neovascularization compared to saline control [1] [fold] | average lymphocyte counts (+/-SD) ([2]; 30 mg/kg daily) | average lymphocyte counts (+/-SD) ([2]; 75 mg/kg daily) | average lymphocyte counts (+/-SD) ([2]; 200 mg/kg daily) | formation of capillary-like structures (HUVECs) | effect on S1P-stimulated fibroblast proliferation, migration, collagen expression, myofibroblast differentiation [3] |
| --- | --- | --- | --- | --- | --- | --- | --- | --- | --- |
| LT1009: humanized anti-S1P IgG1/kappa mAb with Cys to Ala in HCDR2, light chain with 5 backmutations; SEQ ID NO: 31/32 | markedly suppressed neovascularization | ~99% | significant inhibition | ~4 | – | – | – | – | – |
| LT1002: murine anti-S1P monoclonal antibody, IgG1 kappa, from hybridoma clone 306D326.26 (antibody, listed as Mus sp., V domains shown) VH: QAHLQQSDAELVKPGASVKISCKVSGFIFIDHTIHWMKQRPEQGLEWIGCISPRHDITKYNEMFRGKATLTADKSSTTAYIQVNSLTFEDSAVYFCARGGFYGSTIWFDFWGQGTTLTVS VL: ETTVTQSPASLSMAIGEKVTIRCITTTDIDDDMNWFQQKPGEPPNLLISEGNILRPGVPSRFSSSGYGTDFLFTIENMLSEDVADYYCLQSDNLPFTFGSGTKLEIK | – | approximately 80% | – | – | 0.856+/−0.426 10^9 cells/L | 0.902+/−0.269 10^9 cells/L | 0.638+/−0.262 10^9 cells/L | failed to form capillary-like structures | neutralized |

From US8026342B2, “Compositions and methods for binding sphingosine-1-phosphate” (Lpath, Inc., priority 2006, dated 2011)
